Broadly, the Km is the substrate concentration at which the rate is half of its maximum.

Substrate in data set [1]: CNCCCOc1ccc2c(C)cc(=O)oc2c1
Nature of the data set: Fluorogenic MAO A substrate assay. The data set is classed as biochemical, human. Particulars: other: fit of Table 31. Here is the method:
(§1) The fluorescent signal was then measured (excitation/emission=355/460 nm) on a Fluoroskan Ascent plate fluorometer.
(§2) This 90 μl contained 35 μl 200 mM Tricine pH 8.3, 35 μl 200 mM Tricine pH 8.7 (or water), 10 μl 200 mM MgSO4, and 10 μl of each substrate dilution.

Substrate in data set [2]: CNCCCOc1ccc2nc(C3=N[C@@H](C(=O)O)CS3)ccc2c1
Nature of the data set: purified protein, by the assay type.

Substrate in data set [3]: NCCCOc1ccc2nc(C3=N[C@@H](C(=O)O)CS3)sc2c1
As to the kind of experiment: purified protein, by the assay type. To be noted: other: fit of Tables 23-24.

Substrate in data set [4]: O=C(O)[C@H]1O[C@@H](Oc2ccc3nc(C4=N[C@@H](C(=O)O)CS4)sc3c2)[C@H](O)[C@@H](O)[C@@H]1O
Nature of the data set: Beta-glucuronidase (GUS) assay. The format is biochemical, human. Particulars: other: 50 mM MES, pH 6.3. Here is the method: The source of the human enzyme was Sigma-Aldrich. GUS was incubated with the substrate in 50 mM MES, pH 6.3, for 15 minutes.

Substrate in data set [5]: CNCCCOc1ccc2nc(C3=N[C@@H](C(=O)O)CS3)ccc2c1
As to the kind of experiment: Two-step luminescent FMO 3 assay. The data set is classed as biochemical, human. Particulars: other: fit of Table 33.

Substrate in data set [6]: CNCCCOc1ccc2nc(C3=N[C@@H](C(=O)O)CS3)ccc2c1
Nature of the data set: Two-step bioluminogenic MAO B substrate assay. To be noted: other: fit of Tables 23-24. The data set is classed as biochemical, human.

Substrate in data set [7]: NCCCOc1ccc2nc(C3=N[C@@H](C(=O)O)CS3)sc2c1
Nature of the data set: Two-step bioluminogenic MAO B substrate assay. The format is biochemical, human.

Substrate in data set [8]: CNCCCOc1ccc2c(C)cc(=O)oc2c1
As to the kind of experiment: Fluorogenic MAO B substrate assay. The data set is classed as biochemical, human. To be noted: other: fit of Table 31. Here is the method:
as §1, §2

B1: human recombinant monoamine oxidase A (MAO A) (Homo sapiens) (protein)
chain: MENQEKASIAGHMFDVVVIGGGISGLSAAKLLTEYGVSVLVLEARDRVGGRTYTIRNEHVDYVDVGGAYVGPTQNRILRLSKELGIETYKVNVSERLVQYVKGKTYPFRGAFPPVWNPIAYLDYNNLWRTIDNMGKEIPTDAPWEAQHADKWDKMTMKELIDKICWTKTARRFAYLFVNINVTSEPHEVSALWFLWYVKQCGGTTRIFSVTNGGQERKFVGGSGQVSERIMDLLGDQVKLNHPVTHVDQSSDNIIIETLNHEHYECKYVINAIPPTLTAKIHFRPELPAERNQLIQRLPMGAVIKCMMYYKEAFWKKKDYCGCMIIEDEDAPISITLDDTKPDGSLPAIMGFILARKADRLAKLHKEIRKKKICELYAKVLGSQEALHPVHYEEKNWCEEQYSGGCYTAYFPPGIMTQYGRVIRQPVGRIFFAGTETATKWSGYMEGAVEAGERAAREVLNGLGKVTEKDIWVQEPESKDVPAVEITHTFWERNLPSVSGLLKIIGFSTSVTALGFVLYKYKLLPRS
notes: purchased Sigma Chemical Company M-7316; host or cells: baculovirus infected insect cells (microsomes)
Consider B1, for which the Michaelis-Menten constant (Km) worked out at 21 ± 1 µM in data set [1], 1560 ± 130 µM in data set [2] (other: fit of Table 22), 1700 µM in data set [2] (other: fit of Tables 23-24) and 1320 µM in data set [3].

B2: beta-glucuronidase (GUS) (Homo sapiens) (protein)
chain: LQGGMLYPQESPSRECKELDGLWSFRADFSDNRRRGFEEQWYRRPLWESGPTVDMPVPSSFNDISQDWRLRHFVGWVWYEREVILPERWTQDLRTRVVLRIGSAHSYAIVWVNGVDTLEHEGGYLPFEADISNLVQVGPLPSRLRITIAINNTLTPTTLPPGTIQYLTDTSKYPKGYFVQNTYFDFFNYAGLQRSVLLYTTPTTYIDDITVTTSVEQDSGLVNYQISVKGSNLFKLEVRLLDAENKVVANGTGTQGQLKVPGVSLWWPYLMHERPAYLYSLEVQLTAQTSLGPVSDFYTLPVGIRTVAVTKSQFLINGKPFYFHGVNKHEDADIRGKGFDWPLLVKDFNLLRWLGANAFRTSHYPYAEEVMQMCDRYGIVVIDECPGVGLALPQFFNNVSLHHHMQVMEEVVRRDKNHPAVVMWSVANEPASHLESAGYYLKMVIAHTKSLDPSRPVTFVSNSNYAADKGAPYVDVICLNSYYSWYHDYGHLELIQLQLATQFENWYKKYQKPIIQSEYGAETIAGFHQDPPLMFTEEYQKSLLEQYHLGLDQKRRKYVVGELIWNFADFMTEQSPTRVLGNKKGIFTRQRQPKSAAFLLRERYWKIANETRYPHSVAKSQCLENSLFT
notes: purchased Sigma-Aldrich
In the case of B2, the Km in data set [4] came to 180 ± 30 µM.

B3: human recombinant flavin-containing monooxygenase 3 (FMO 3) (Homo sapiens) (protein)
chain: MGKKVAIIGAGVSGLASIRSCLEEGLEPTCFEKSNDIGGLWKFSDHAEEGRASIYKSVFSNSSKEMMCFPDFPFPDDFPNFMHNSKIQEYIIAFAKEKNLLKYIQFKTFVSSVNKHPDFATTGQWDVTTERDGKKESAVFDAVMVCSGHHVYPNLPKESFPGLNHFKGKCFHSRDYKEPGVFNGKRVLVVGLGNSGCDIATELSRTAEQVMISSRSGSWVMSRVWDNGYPWDMLLVTRFGTFLKNNLPTAISDWLYVKQMNARFKHENYGLMPLNGVLRKEPVFNDELPASILCGIVSVKPNVKEFTETSAIFEDGTIFEGIDCVIFATGYSFAYPFLDESIIKSRNNEIILFKGVFPPLLEKSTIAVIGFVQSLGAAIPTVDLQSRWAAQVIKGTCTLPSMEDMMNDINEKMEKKRKWFGKSETIQTDYIVYMDELSSFIGAKPNIPWLFLTDPKLAMEVYFGPCSPYQFRLVGPGQWPGARNAILTQWDRSLKPMQTRVVGRLQKPCFFFHWLKLFAIPILLIAVFLVLT
notes: purchased Sigma Chemical Company F-5053; host or cells: baculovirus infected insect cells (microsomes)
Consider B3, for which the Km in data set [5] turned out to be 200 ± 20 µM.

B4: human recombinant monoamine oxidase B (MAO B) (Homo sapiens) (protein)
chain: MSNKCDVVVVGGGISGMAAAKLLHDSGLNVVVLEARDRVGGRTYTLRNQKVKYVDLGGSYVGPTQNRILRLAKELGLETYKVNEVERLIHHVKGKSYPFRGPFPPVWNPITYLDHNNFWRTMDDMGREIPSDAPWKAPLAEEWDNMTMKELLDKLCWTESAKQLATLFVNLCVTAETHEVSALWFLWYVKQCGGTTRIISTTNGGQERKFVGGSGQVSERIMDLLGDRVKLERPVIYIDQTRENVLVETLNHEMYEAKYVISAIPPTLGMKIHFNPPLPMMRNQMITRVPLGSVIKCIVYYKEPFWRKKDYCGTMIIDGEEAPVAYTLDDTKPEGNYAAIMGFILAHKARKLARLTKEERLKKLCELYAKVLGSLEALEPVHYEEKNWCEEQYSGGCYTTYFPPGILTQYGRVLRQPVDRIYFAGTETATHWSGYMEGAVEAGERAAREILHAMGKIPEDEIWQSEPESVDVPAQPITTTFLERHLPSVPGLLRLIGLTTIFSATALGFLAHKRGLLVRV
notes: purchased Sigma Chemical Company M-7441; host or cells: baculovirus infected insect cells (microsomes)
Consider B4, for which the Km in data set [6] was determined as 650 µM; in data set [7] (other: fit of Table 21) it was 24 ± 1 µM; in data set [7] (other: fit of Tables 23-24), 1880 µM; in data set [8], 16 ± 1 µM.

For the origin of these results see patent US10745365B2, “Luminogenic and fluorogenic compounds and methods to detect molecules or conditions” (Promega Corporation, priority 2005, dated 2020).
